Measured values as given in publication PMC10090351, “DNA accelerates the protease inhibition of a bacterial serpin chloropin” (Frontiers in Molecular Biosciences, 2023).

Key:
[1] = molecular target: thrombin (UniProt P00734)
[2] = molecular target: thrombin (UniProt P00734); remark: listed apart in the source
[3] = molecular target: thrombin (UniProt P00734); remark: listed apart in the source
[4] = molecular target: thrombin (UniProt P00734); remark: listed apart in the source
[5] = molecular target: thrombin (UniProt P00734); remark: listed apart in the source
[6] = molecular target: kallikrein 7 (UniProt P49862 30-253); assay: cell-based or functional assay
kallikrein 7, sequence (P49862 30-253): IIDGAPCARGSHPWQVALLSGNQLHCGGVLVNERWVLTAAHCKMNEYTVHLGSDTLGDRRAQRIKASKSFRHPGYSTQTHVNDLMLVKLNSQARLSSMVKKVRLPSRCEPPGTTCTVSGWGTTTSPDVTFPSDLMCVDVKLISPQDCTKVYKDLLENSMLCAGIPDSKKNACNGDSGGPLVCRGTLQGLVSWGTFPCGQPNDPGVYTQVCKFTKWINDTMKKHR

Work on Chloropin K126D/K127D (natural protein) yielded a k obs of thrombin inhibition, 375 nM chloropin variant, 75 nM thrombin, with 0.8 nM linear plasmid DNA [1] of 0.0035 s⁻¹, a k obs of thrombin inhibition, 375 nM chloropin variant, 75 nM thrombin, without linear plasmid DNA [1] of 0.0036 s⁻¹ and a k obs of thrombin inhibition, 1 uM chloropin variant, 0.1 uM thrombin, with 0.1 uM heparin [1] of 0.0107 s⁻¹. The k obs of thrombin inhibition, 1 uM chloropin variant, 0.1 uM thrombin, without heparin [1] was 0.0086 s⁻¹.

Chloropin K268D/K269D (natural protein) gave a k obs of thrombin inhibition, 375 nM chloropin variant, 75 nM thrombin, with 0.8 nM linear plasmid DNA [1] of 0.0041 s⁻¹, a k obs of thrombin inhibition, 375 nM chloropin variant, 75 nM thrombin, without linear plasmid DNA [1] of 0.0035 s⁻¹ and a k obs of thrombin inhibition, 1 uM chloropin variant, 0.1 uM thrombin, with 0.1 uM heparin [1] of 0.0096 s⁻¹. For the same molecule, the k obs of thrombin inhibition, 1 uM chloropin variant, 0.1 uM thrombin, without heparin [1] was 0.0083 s⁻¹.

In the case of Chloropin K119D (natural protein), the k obs of thrombin inhibition, 375 nM chloropin variant, 75 nM thrombin, with 0.8 nM linear plasmid DNA [1] is reported as 0.0055 s⁻¹, the k obs of thrombin inhibition, 375 nM chloropin variant, 75 nM thrombin, without linear plasmid DNA [1] is reported as 0.0038 s⁻¹ and the k obs of thrombin inhibition, 1 uM chloropin variant, 0.1 uM thrombin, with 0.1 uM heparin [1] is reported as 0.0555 s⁻¹. For the same molecule, the k obs of thrombin inhibition, 1 uM chloropin variant, 0.1 uM thrombin, without heparin [1] was 0.0095 s⁻¹.

B1: chloropin (natural protein, Chlorobium limicola, UniProt B3ECZ8 54-420, looked up)
chain: ELAVDLYRNLAVTGKNLFFSPSSIETALSMTMSGARNRTERQMADVMHVGPDAMERHHAGLASFEKQLESIQKKGKVTIASSNSIWPQKNYPLAPSWLAQLKRYYGTSVTPVDYIHETEKARIAINRRVEKDTKNRIRELLKPGILDPLTRLALVNAVYFKGDWEHPFNENNTVASPFYIRQGTTGKAPLMRQSASFGYGDHDGVQVLELPYAGKKLSMIVVLPKERFGLEALEKTLTPKQFALWTANLSERKIEALLPKFRTTSAFRLDETLRHMGMTDAFDRNLADFSGMVSNSDKLYIGAVVHKAFVDVGEKGTEAAAATAVVMQLRSAMPMPVPVFKADHPFLFAIRENSTGRILFMGRISDP
Molecule B1 has a k obs of thrombin inhibition, 375 nM chloropin, 75 nM thrombin, with 0.8 nM linear plasmid DNA [1] of 0.0142 s⁻¹, a k obs of thrombin inhibition, 375 nM chloropin, 75 nM thrombin, with supercoiled plasmid DNA [1] of 0.0193 s⁻¹ and a k obs of thrombin inhibition, 375 nM chloropin, 75 nM thrombin, without linear plasmid DNA [1] of 0.0035 s⁻¹. The k obs of thrombin inhibition, 375 nM chloropin, 75 nM thrombin, without supercoiled plasmid DNA [1] was 0.0035 s⁻¹, the k obs of thrombin inhibition, 1 uM chloropin, 0.1 uM thrombin, with 0.1 uM heparin [1] was 0.0667 s⁻¹ and the k obs of thrombin inhibition, 1 uM chloropin, 0.1 uM thrombin, without heparin [1] was 0.0083 s⁻¹. For the same molecule, the k 2, derived second-order inhibition rate constant [2] was 25000 M⁻¹ s⁻¹, the k app, apparent second-order rate constant of thrombin inhibition (residual protease activity) [2] was 14700 M⁻¹ s⁻¹ and the stoichiometry of inhibition (SI), residual thrombin activity after 12 h with 0-2 uM chloropin [2] was 1.68. The fold increase of k obs of thrombin inhibition with low molecular weight heparin (series of concentrations, bell-shaped; 5.9-fold at 0.1 uM, maximum at 0.5 uM) [3] was 17.2 fold, the fold increase of the rate of thrombin inhibition with linear DNA (series of concentrations; maximum around 2.4-4.8 nM) [4] was 142 fold and the fold increase of the rate of thrombin inhibition with supercoiled plasmid DNA (0.05-25.6 nM, bell-shaped; 1.5-fold at 0.1 nM, maximum between 1.6 and 3.2 nM) [4] was 74 fold. For the same molecule, the second order rate constant of thrombin inhibition with DNA [5] was 3.6e+06 M⁻¹ s⁻¹ and the “stoichiometry of inhibition (SI), residual KLK7 activity after 12 h with 0-2 uM chloropin” value [6] was 1.55.
